Test results from patent US9969998B2, “Compositions of adenosine deaminase-2 (ADA2), variants thereof and methods of using same” (Halozyme, Inc., priority 2014, dated 2018).
Where two headings read alike, the source gives them in different places. Each block holds one molecule with its values, some of them ahead of it.

Columns and labels:
ADA2 = molecular target: T1, ADA2 (Homo sapiens, UniProt Q9NZK5); conditions: cited from earlier work
T1 sequence (Q9NZK5 30-511): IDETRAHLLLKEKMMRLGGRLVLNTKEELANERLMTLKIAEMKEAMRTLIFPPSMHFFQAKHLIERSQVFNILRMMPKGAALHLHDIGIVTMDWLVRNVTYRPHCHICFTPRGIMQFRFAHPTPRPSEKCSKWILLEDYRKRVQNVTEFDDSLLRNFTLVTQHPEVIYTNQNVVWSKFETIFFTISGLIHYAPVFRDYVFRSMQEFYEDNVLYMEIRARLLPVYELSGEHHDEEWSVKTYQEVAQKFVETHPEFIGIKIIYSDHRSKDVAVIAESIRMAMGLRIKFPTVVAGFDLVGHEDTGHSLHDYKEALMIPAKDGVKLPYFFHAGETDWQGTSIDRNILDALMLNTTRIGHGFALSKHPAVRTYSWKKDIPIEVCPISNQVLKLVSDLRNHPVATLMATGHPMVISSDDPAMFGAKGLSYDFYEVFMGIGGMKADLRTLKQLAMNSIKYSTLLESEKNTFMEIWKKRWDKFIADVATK

[1] = 37° C.; for Plasma incubated mean adenosine deaminase activity: 0.17 mg/ml in 25% BALB/c mouse plasma; for PBS incubated mean adenosine deaminase activity: 0.17 mg/ml in PBS 0.2% BSA
[2] = Heparin binding ELISA (heparin coated microtiter plate); conditions: for Average OD450, heparin binding ELISA: 3 μM protein
Protocol: A 96-well plate was coated with 100 μL of 200 μg/mL heparin sodium salt (Calibochem, EMD Milipore, Billerica, Mass.; Cat. No. 375095) in Na2CO3 buffer (pH 9.6), overnight at 4° C. The wells were blocked with 5% milk in PBS, and washed 6 times with PBS. 3 μM of select rHuADA2 variants (see Table 20), WT rHuADA2 (positive control) and WT rHuADA1 (negative control) were added to the wells individually and incubated for 2 hours at room temperature, followed by washing 6 times with PBS. 100 μL of 1:1000 diluted horseradish peroxidase (HRP)-anti-FLAG antibody (Abcam, Cambridge, UK; Cat. No. Ab1238) was added to the wells to detect binding and incubated at room temperature for 1 hour. The ELISA reactions were developed by adding the 3,3′,5,5′-Tetramethylbenzidine (TMB) substrate solution (Pierce, Thermo Fisher Scientific, Rockford, Ill.) according the manufacturer's instructions and reading the optical density at 450 nm (OD450) on a plate reader.

[3] = Heparin binding capture ELISA (biotin-heparin on streptavidin plate); conditions: PEGylated and non-PEGylated forms (Table 22)
Protocol: Heparin binding of PEGylated rHuADA2 or variants was assessed by capture ELISA. Binding of rHuADA1 was assessed as a negative control. 100 μL of 0.2 mg/mL biotin-heparin (Sigma-Aldrich, St. Louis, Mo.; Cat No. B9806-10MG) was added to a streptavidin coated 96-well plate (Thermo Fisher Scientific, Rockford, Ill.; Cat. No. 15520), and incubated at room temperature for 1 hour. The plate was washed 6 times with PBS. Then, 150 μL of […] rHuADA2 was added to the heparin coated plate, titrated in 3× serial dilutions, and incubated at room temperature for 2 hours. The plate was then washed 6 times with PBS. A 1000× dilution of goat HRP-anti-FLAG pAb (Abcam, Cambridge, UK; Cat. No. Ab1238) was added to the ELISA plate and incubated at room temperature for 1 hour. The ELISA plate was then washed 6 times with phosphate buffered saline with Tween (PBST) and developed with the 3,3′,5,5′-Tetramethylbenzidine (TMB) substrate solution (Pierce, Thermo Fisher Scientific, Rockford, Ill.) according the manufacturer's instructions and reading the optical density at 450 nm (OD450) on a plate reader.

[4] = Thermal stability by differential scanning fluorimetry (DSF); format: physicochemical; conditions: 0.1-1 mg/mL protein
Protocol: The stability of the rHuADA2 WT and variants was measured by differential scanning fluorimetry (DSF) at increasing temperatures. DSF measures conformational stability, which correlates with thermal stability. The melting temperature (Tm) in DSF is defined as the midpoint of the protein unfolding transition.
Non-PEGylated WT rHuADA2, non-PEGylated rHuADA2 variants, and PEGylated forms of WT rHuADA2 and rHuADA2 variants were prepared at concentrations of 0.1-1 mg/mL and mixed with the ROX™ protein thermal shift dye (Applied Biosystems, Carlsbad, Calif.; Cat. No. 4461146) to a final dye concentration that corresponds to a 125-fold dilution of the stock ROX™ solution. Protein samples were then loaded into 96-well plate at a volume of 20 μL/well in triplicate. A ViiA7 RT-PCR System (Applied Biosystems, Carlsbad, Calif.) was used to measure the shift in fluorescence as the temperature of the samples were increased. The reactions were subjected to the following steps: incubation at 25° C. for 2 min; ramping of temperature from 25 to 99° C. at a rate of 0.05° C. per second; followed by a 99° C. incubation for 2 min. The wavelengths used for emission and excitation were 623 nanometers (nm) and 580 nm, respectively.

[5] = Adenosine deaminase (ADA) enzymatic activity assay kit; format: biochemical
[6] = mouse, in vivo, iv, 7.5 mg/kg
[7] = adenosine deaminase activity, cited from earlier work
[8] = cited from earlier work
[9] = Stability of ADA activity in plasma; format: in vitro ADME, mouse; conditions: long incubation (e.g., 24 hours) in plasma
Protocol: For therapeutic uses, such as for treatment of tumors or cancers, it is desirable to administer to the subject a dosage of ADA2 that will maintain plasma adenosine deaminase (ADA) activity for a sufficient time for therapeutic effect. […] The plasma stability of any ADA2 described herein, such as a wildtype, variant or conjugate, can be determined by measuring the changes in enzymatic activity and/or other physical properties, before and after incubation in plasma, e.g., ex vivo mammalian plasma.
Stability can be assessed in vitro or in vivo. For example, stability can be tested after exposure to plasma for a desired length of time, which can be empirically determined or selected by a skilled artisan depending on the desired length of time. For example, the incubation time can be at least 1 hour, such as at least 2, 3, 4, 5, 10, 15, 20, 24, 30, 36, 48, 60, 72 hours or more. The protein can be directly administered systemically, such as intravenously, and activity can be assessed. In other examples, the protein can be subject to appropriate incubation conditions in vitro. In one example, the stability of ADA activity of any ADA2 provided herein can be measured after incubation at 37° C., in 25% ex vivo plasma or serum, such as human or non-human plasma or serum, for example, mouse plasma. […]

Average OD450, heparin binding ELISA ([2]; Set 1): 0.07
Average OD450, heparin binding ELISA ([2]; Set 2): 0.06
Heparin Binding ELISA Average OD450 ([2]; single and S265N combination variants (Table 34)): −0.02
Average OD450, heparin binding capture ELISA [3]: <0.02
B1: WT ADA1: recombinant human adenosine deaminase 1 with Strep-tag, mature SEQ ID NO:66/67 (protein, listed as Homo sapiens)
chain 1: AQTPAFDKPKVELHVHLDGSIKPETILYYGRRRGIALPANTAEGLLNVIGMDKPLTLPDFLAKFDYYMPAIAGCREAIKRIAYEFVEMKAKEGVVYVEVRYSPHLLANSKVEPIPWNQAEGDLTPDEVVALVGQGLQEGERDFGVKARSILCCMRHQPNWSPKVVELCKKYQQQTVVAIDLAGDETIPGSSLLPGHVQAYQEAVKSGIHRTVHAGEVGSAEVVKEAVDILKTERLGHGYHTLEDQALYNRLRQENMHFEICPWSSYLTGAWKPDTEHAVIRLKNDQANYSLNTDDPLIFKSTLDTDYQMTKRDMGFTEEEFKRLNINAAKSSFLPEDEKRELLDLLYKAYGMPPSASAGQNL
chain 2: AQTPAFDKPKVELHVHLDGSIKPETILYYGRRRGIALPANTAEGLLNVIGMDKPLTLPDFLAKFDYYMPAIAGCREAIKRIAYEFVEMKAKEGVVYVEVRYSPHLLANSKVEPIPWNQAEGDLTPDEVVALVGQGLQEGERDFGVKARSILCCMRHQPNWSPKVVELCKKYQQQTVVAIDLAGDETIPGSSLLPGHVQAYQEAVKSGIHRTVHAGEVGSAEVVKEAVDILKTERLGHGYHTLEDQALYNRLRQENMHFEICPWSSYLTGAWKPDTEHAVIRLKNDQANYSLNTDDPLIFKSTLDTDYQMTKRDMGFTEEEFKRLNINAAKSSFLPEDEKRELLDLLYKAYGMPPSASAGQNLSGSGSWSHPQFEK
modifications: Strep-tag; mature ADA1 protein; mature ADA1-linker-Strep
Plasma incubated mean adenosine deaminase activity ([1]; 0 hr): 71,663.6 mU/mL
PBS incubated mean adenosine deaminase activity ([1]; 0 hr): 61,077.0 mU/mL
Plasma incubated mean adenosine deaminase activity ([1]; 4 hr): 46,772.1 mU/mL
PBS incubated mean adenosine deaminase activity ([1]; 4 hr): 59,544.8 mU/mL
activity retained in PBS/BSA control ([1]; 24 hours): greater than 80%
activity retained after treatment with plasma ([1]; 24 hours, mouse plasma): less than 1%
Plasma incubated mean adenosine deaminase activity ([1]; 24 hr): 673.6 mU/mL
PBS incubated mean adenosine deaminase activity ([1]; 24 hr): 50,287.9 mU/mL

Average OD450, heparin binding capture ELISA [3]: 0.75
B2: PEG-WT ADA2: WT rHuADA2 PEGylated with linear PEG-20K (conjugate, UniProt Q9NZK5 30-511, looked up)
Adenosine deaminase 2: IDETRAHLLLKEKMMRLGGRLVLNTKEELANERLMTLKIAEMKEAMRTLIFPPSMHFFQAKHLIERSQVFNILRMMPKGAALHLHDIGIVTMDWLVRNVTYRPHCHICFTPRGIMQFRFAHPTPRPSEKCSKWILLEDYRKRVQNVTEFDDSLLRNFTLVTQHPEVIYTNQNVVWSKFETIFFTISGLIHYAPVFRDYVFRSMQEFYEDNVLYMEIRARLLPVYELSGEHHDEEWSVKTYQEVAQKFVETHPEFIGIKIIYSDHRSKDVAVIAESIRMAMGLRIKFPTVVAGFDLVGHEDTGHSLHDYKEALMIPAKDGVKLPYFFHAGETDWQGTSIDRNILDALMLNTTRIGHGFALSKHPAVRTYSWKKDIPIEVCPISNQVLKLVSDLRNHPVATLMATGHPMVISSDDPAMFGAKGLSYDFYEVFMGIGGMKADLRTLKQLAMNSIKYSTLLESEKNTFMEIWKKRWDKFIADVATK
modifications: linear PEG-20K
notes: WT rHuADA2 PEGylated with linear PEG-20K
Tm, melting temperature by DSF [4]: 68.81 °C
adenosine deaminase activity mU/mL ([5]; PEGylated and non-PEGylated forms (Table 23)): 124.2 mU/mL
% of WT adenosine deaminase activity ([5]; Table 23): 102.2%
AUC (mU * h)/mL [6]: 1,444,000 (mU * h)/mL
Half life slow (t1/2) [6]: 13.6 h
Percent increase in AUC compared to WT ADA2 [6]: 4291%
Percent increase in t1/2 compared to WT ADA2 [6]: 1078%

The next lines start with the molecule.

Molecule: OC[C@H]1O[C@@H](n2cnc3c2N=CNC[C@H]3O)C[C@@H]1O [2′-deoxycoformycin]
inhibition of ADA2 (ADA2): potent inhibitors

B3: ADA1: human adenosine deaminase 1, monomer, SEQ ID NO:12 (protein, listed as Homo sapiens)
chain: MAQTPAFDKPKVELHVHLDGSIKPETILYYGRRRGIALPANTAEGLLNVIGMDKPLTLPDFLAKFDYYMPAIAGCREAIKRIAYEFVEMKAKEGVVYVEVRYSPHLLANSKVEPIPWNQAEGDLTPDEVVALVGQGLQEGERDFGVKARSILCCMRHQPNWSPKVVELCKKYQQQTVVAIDLAGDETIPGSSLLPGHVQAYQEAVKSGIHRTVHAGEVGSAEVVKEAVDILKTERLGHGYHTLEDQALYNRLRQENMHFEICPWSSYLTGAWKPDTEHAVIRLKNDQANYSLNTDDPLIFKSTLDTDYQMTKRDMGFTEEEFKRLNINAAKSSFLPEDEKRELLDLLYKAYGMPPSASAGQNL
modifications: ADA1 protein; ref <300>: PUBLICATION INFORMATION:; ref <308>: DATABASE ACCESSION NUMBER: NCBI NP_000013.2; ref <309>: DATABASE ENTRY DATE: 2014-05-03
pH optimum [7]: ~7.5
pH optimum ([7]; listed as ADA′): 7.5
Km ([8]; for adenosine, wild-type enzyme in humans, read-out: Km): ~52 µM
Km ([8]; read-out: Km for adenosine): ~100 µM
stability in plasma [9]: substantially less stable
